Measured values reported in US20210238282A1 (AMPSOURCE BIOPHARMA SHANGHAI, published 2021).

T1: human TIM-1 (Sino Biological Inc., catalog No. 11051-H08H1) (human, UniProt Q96D42 21-290)
T1 construct: Bought protein
T1 sequence (looked up): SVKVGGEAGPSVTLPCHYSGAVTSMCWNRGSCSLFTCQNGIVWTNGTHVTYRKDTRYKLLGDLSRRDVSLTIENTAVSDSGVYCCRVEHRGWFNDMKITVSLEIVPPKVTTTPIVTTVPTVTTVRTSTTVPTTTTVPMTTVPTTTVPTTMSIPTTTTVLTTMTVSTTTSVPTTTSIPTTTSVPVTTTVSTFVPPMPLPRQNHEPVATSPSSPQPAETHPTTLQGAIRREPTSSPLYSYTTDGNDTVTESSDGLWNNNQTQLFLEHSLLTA

T2: human TIM-4 (Sino Biological Inc., catalog No. 12161-H08H) (human, UniProt Q96H15 25-315)
T2 construct: Bought protein
T2 sequence (looked up): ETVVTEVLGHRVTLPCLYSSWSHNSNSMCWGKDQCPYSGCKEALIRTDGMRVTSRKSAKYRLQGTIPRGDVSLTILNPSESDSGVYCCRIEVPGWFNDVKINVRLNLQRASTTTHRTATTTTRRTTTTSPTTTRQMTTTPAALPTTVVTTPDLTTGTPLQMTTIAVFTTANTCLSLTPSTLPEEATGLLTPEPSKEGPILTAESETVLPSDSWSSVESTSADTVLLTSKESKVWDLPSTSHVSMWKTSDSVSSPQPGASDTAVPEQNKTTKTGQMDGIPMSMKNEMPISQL


How the values were obtained:
[1] = target: T3, human TIM-3 antigen (His-tagged TIM-3 extracellular domain expressed by Ampsource Biopharma Shanghai Inc.) (human, UniProt Q8TDQ0 22-202); assay: BLI (ForteBio Octet) as stated; antibody captured by anti-human IgG Fc, antigen in solution, 1:1 model
T3 construct: extracellular domain; also called TIM-3-His; not shown: His tag

[2] = target: TIM-3 (His-tagged, used in the TIM-3/PtdSer competitive ELISA) (UniProt Q8TDQ0 22-200, limits assumed); assay: competitive ELISA, plate coated with PtdSer (phosphatidylserine, not a protein), His-tagged TIM-3 in solution with antibody, anti-6xHis-HRP
[3] = target: T1, human TIM-1 (Sino Biological Inc., …); assay: ELISA, plate coated with human TIM-1 at 1 ug/mL, detection with HRP-labeled goat anti-human IgG
[4] = target: T3, human TIM-3 antigen (His-tagged TIM-3 …); assay: direct ELISA with HRP-labeled AB12S3, plate coated with human TIM-3 at 1 ug/mL
[5] = target: T4, TIM3-Euk (TIM-3 reagent of the TIM-3/Gal9 binding assay kit) (UniProt Q8TDQ0 22-200, limits assumed, europium cryptate label (Euk), position not stated); assay: HTRF competition, blocking of TIM-3/Galectin-9 binding (competitor: Tag-Gal9)
T4 construct: Kit reagent

[6] = target: T3, human TIM-3 antigen (His-tagged TIM-3 …); assay: ELISA, plate coated with His-tagged human TIM-3 extracellular domain
[7] = target: T2, human TIM-4 (Sino Biological Inc., …); assay: ELISA, plate coated with human TIM-4 at 1 ug/mL, detection with HRP-labeled goat anti-human IgG
[8] = target: monkey TIM-3 (Sino Biological Inc., catalog No. 90312-C02H) (monkey); assay: direct ELISA with HRP-labeled AB12S3, plate coated with monkey TIM-3 at 1 ug/mL
[9] = target: T5, mouse TIM-3 protein (Sino Biological Inc., catalog No. 51152-M08H) (mouse, UniProt Q8VIM0 20-191); assay: direct ELISA with HRP-labeled AB12S3, plate coated with mouse TIM-3 at 1 ug/mL
T5 construct: Bought protein; also called murine TIM-3

[10] = target: T3, human TIM-3 antigen (His-tagged TIM-3 …); assay: ELISA, plate coated with His-tagged human TIM-3 ECD, goat anti-mouse IgG-HRP
[11] = target: T3, human TIM-3 antigen (His-tagged TIM-3 …); assay: BLI (ForteBio Octet) as stated; antigen in solution, 1:1 model; capture of the murine antibody not described

Binder | Kd [1] [pM] | koff [1] [s⁻¹] | kon [1] [M⁻¹ s⁻¹] | EC50 (read off the curve) [6] [µg/mL] | also measured
humanized anti-TIM-3 antibody AB12S6 (antibody, V domains shown) VH: QVQLQLSGAEVKKPGASVKVSCKASGYTFTNYVMHWVRQAPGQRLEWMGWIDPDNDGIKYSQKFQGRVTLTSDKSASTAYMELSSLRSEDTAVYYCARDFGYVDWFPYWGQGTLVTVSS VL: DIQMTQSPSSMSASVGDRVTITCQASQDVTTALNWYQQKPGKSPKLLIYSASNLETGVPSRFSGSGSGTDFTFTISSLQPEDIATYYCQQHYSIPPTFGGGTNLEIK | 4.38 | 8.68e-07 | 198000 | – | –
humanized anti-TIM-3 antibody AB12S5 (antibody, V domains shown, it was captured through anti-human IgG Fc) VH: QVQLVQSGAEVKKPGASVKVSCKASGYTFTNYVMHWVRQAPGQRLEWMGWIDPDNDGIKYSQKFQGRVTITRDTSASTAYMELSSLRSEDTAVYYCARDFGYVDWFPYWGQGTTVTVSS VL: DIQMTQSPSSLSASVGDRVTITCQASQDVTTALNWYQQKPGKAPKLLIYSASNLETGVPSRFSGSGSGTDFTFTISSLQPEDIATYYCQQHYSIPPTFGGGTKVEIK | 4.82 | 6.32e-07 | 131000 | – | –
humanized anti-TIM-3 antibody AB12S7 (antibody, V domains shown) VH: EVQLQLSGAEVKKPGASVKVSCKASGYTFTNYVMHWMRQKPGQRLEWMGWIDPDNDGIKYSQKFQGRVTITRDKSSSTAYMELSSLRSEDTAVYYCARDFGYVDWFPYWGQGTLVTVSS VL: DIVMTQSPSSLSASVGDRVTITCQASQDVTTALNWYQQKSGQSPKLLIYSASNLETGVPSRFSGSGSGTDFTFTISSLQPEDIATYYCQQHYSIPPTFGGGTNLEIK | 3.44 | 7.66e-07 | 223000 | – | –
humanized anti-TIM-3 antibody AB12S3 (antibody, human IgG4 S228P, kappa, V domains shown, Human IgG4 S228P (EU) heavy chain and human kappa light chain) VH: EVQLVQSGAEVKKPGASVKVSCKASGYTFTNYVMHWMRQAPGQRLEWIGYIDPDNDGIKYNEKIKGKATLTSDKSSSTAYMELSSLRSEDTAVYYCARDFGYVDWFPYWGQGTTVTVSS VL: DIVMTQSPSSLSASVGDRVTITCKASQDVTTAVAWYQQKPGKAPKLLIYSASNRYIGVPDRFTGSGSGTDFTFTISSLQPEDIATYYCQQHYSIPPTFGGGTKVEIKR | 2.71 | – | – | ~0.004 | IC50 [2]: 1.33 µg/mL; binding result [3]: no binding (tested: 10000 ng/mL); EC50 (read off the curve) [4]: ~0.008 µg/mL; IC50 [5]: 0.202 µg/mL; binding result [7]: no binding (tested: 10000 ng/mL); EC50 (read off the curve) [8]: 0.05 µg/mL; binding result [9]: no binding (tested: 10000 ng/mL)
humanized anti-TIM-3 antibody AB12S4 (antibody, human IgG4 S228P, kappa, V domains shown, Human IgG4 S228P (EU) heavy chain and human kappa light chain) VH: EVQLVLSGAEVVKPGASVKMSCKASGYTFTNYVMHWMRQKPGQRLEWIGYIDPDNDGIKYNEKIKGKATLTSDKSSSTAYMELSSLRSEDSAVYYCARDFGYVDWFPYWGQGTTVTVSS VL: DIVMTQSPSSMSTSVGDRVTITCKASQDVTTAVAWYQQKPGKSPKLLIYSASNRYIGVPDRFTGSGSGTDFTFTISSVQPEDIAVYYCQQHYSIPPTFGGGTNLEIKR | < 1 | < 1e-07 | 254000 | ~0.004 | –
murine monoclonal antibody Mab22 (antibody, mouse IgG1, V domains shown, subtype identified as murine IgG1 (Kappa); purified from hybridoma supernatant on protein G; also called antibody secreted by hybridoma clone #22; murine antibody Mab22) VH: EVQLQLSGPELVKPGASVKMSCKASGYTFTNYVMHWMRQKPGQGLEWIGYIDPDNDGIKYNEKIKGKATLTSDKSSSTAYMELSSLTSEDSAVYYCARDFGYVDWFPYWGQGTLVTVSA VL: DIVMTQSHKFMSTSVGNRVSITCKASQDVTTAVAWYQQKSGQSPKLLIYSASNRYIGVPDRFTGSGSGTDFTFTISSVQTEDLAVYYCQQHYSIPPTFGGGTNLEIK | – | – | – | – | EC50 [10]: 0.0063 µg/mL; Kd [11]: < 1 pM; koff [11]: < 1e-07 s⁻¹; kon [11]: 345000 M⁻¹ s⁻¹
control antibody AB12S1 (antibody, human IgG1, kappa, N297A, V domains shown, Variable regions derived from anti-TIM-3 antibody ABTIM3 of U.S. Pat. No. 9,605,070; also called positive control antibody AB12S1) VH: QVQLQQPGAELVKPGASVKMSCKASGYTFTSYNMHWIKQTPGQGLEWIGDIYPGNGDTSYNQKFKGKATLTADKSSSTVYMQLSSLTSEDSAVYYCARVGGAFPMDYWGQGTSVTVSS VL: DIVLTQSPASLAVSLGQRATISCRASESVEYYGTSLMQWYQQKPGQPPKLLIYAASNVESGVPARFSGSGSGTDFSLNIHPVEEDDIAIYFCQQSRKDPSTFGGGTKLEIKR | – | – | – | ~0.003 | IC50 [2]: 3.2 µg/mL; IC50 [5]: 0.259 µg/mL
